According to publication PMC12753105, “Evolution of a fuzzy ribonucleoprotein complex in viral assembly” (eLife, 2025):

Molecular target: the molecule itself
Test: dynamic light scattering

B1: LRS peptide N_(210-246):G214C (peptide)
peptide: MAGNCGDAALALLLLDRLNQLESKMSGKGQQQQGQTV
notes: also called N_(LRS, 210-246):G214C; G214C cysteine mutant LRS peptide
binding result: binds
